For two substances, Kd, dH and stoichiometry N results are on record in article doi:10.1101/2023.03.15.532789.

What is called pKd is the Kd on a negative log10 scale, so that one unit is a factor of ten. Lower therefore signals a large Kd. The stoichiometry N is the number of molecules, sites or subunits per partner or assembly.

In experiment [1] the target is hDLG1 PDZ1 domain (human) (UniProt Q12959). The experiment is described as follows: NMR titration.
For experiment [2] the target is unchanged. In words: ITC. In general terms: In ITC the heat of successive injections is recorded.
Experiment [3] deals with hDLG1 PDZ2 domain (human) (UniProt Q12959). In words: ITC.
hDLG1 PDZ2 domain (human), sequence (Q12959 whole entry, the tested form may be a part): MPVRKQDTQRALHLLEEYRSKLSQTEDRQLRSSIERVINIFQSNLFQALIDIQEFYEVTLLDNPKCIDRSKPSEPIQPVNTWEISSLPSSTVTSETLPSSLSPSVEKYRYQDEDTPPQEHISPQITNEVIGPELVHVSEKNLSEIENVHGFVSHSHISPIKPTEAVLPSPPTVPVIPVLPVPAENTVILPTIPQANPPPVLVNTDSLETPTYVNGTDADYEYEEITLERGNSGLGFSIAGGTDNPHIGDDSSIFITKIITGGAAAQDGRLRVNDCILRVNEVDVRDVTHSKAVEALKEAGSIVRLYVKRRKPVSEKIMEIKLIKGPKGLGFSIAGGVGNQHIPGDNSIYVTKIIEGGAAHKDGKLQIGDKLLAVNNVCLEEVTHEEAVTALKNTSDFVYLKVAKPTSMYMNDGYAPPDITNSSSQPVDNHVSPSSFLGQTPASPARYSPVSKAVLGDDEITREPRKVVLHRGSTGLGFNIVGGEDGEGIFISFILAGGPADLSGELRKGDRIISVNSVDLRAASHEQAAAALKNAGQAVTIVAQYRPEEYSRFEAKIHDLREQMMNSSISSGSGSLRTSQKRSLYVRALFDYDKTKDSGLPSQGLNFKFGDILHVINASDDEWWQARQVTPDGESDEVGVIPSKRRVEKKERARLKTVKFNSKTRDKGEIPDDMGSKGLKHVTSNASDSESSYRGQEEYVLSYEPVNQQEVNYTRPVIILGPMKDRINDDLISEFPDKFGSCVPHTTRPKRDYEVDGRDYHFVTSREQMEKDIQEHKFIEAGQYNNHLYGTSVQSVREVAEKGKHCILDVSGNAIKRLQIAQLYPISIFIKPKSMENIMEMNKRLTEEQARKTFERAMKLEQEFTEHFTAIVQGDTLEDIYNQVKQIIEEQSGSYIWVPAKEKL

pKd: −log10 of the molar value.

hDLG1 PDZ1 domain (human), sequence (Q12959 whole entry, the tested form may be a part): as above

In turn, “C-terminally amidated Tax-1 peptide (Tax-1mod)” had a pKd in experiment [1] of 3.02.
In experiment [2], Tax-1 10-mer peptide (H-…-OH) gave a negative-log Kd (pKd) of 5.57, a dH of -8 kcal/mol and a stoichiometry N of 1.03. Also, in experiment [3], the pKd was 6.05, the dH was -10.4 kcal/mol and the stoichiometry N came out at 0.99.
